Laboratory results as given in patent publication US20100285027A1 (CENTRE NATIONAL DE LA RECHERCHE SCIENTIFIQUE, published 2010).

Tests used:
[1] = biological target: T1, irrelevant peptide PELAPVSSNLKYTLDC; assay: ELISA on coated irrelevant peptide, anti-mouse peroxidase, ABTS, read at 405 nm
T1 construct: Negative control in the ELISA; also called control peptide
T1 peptide: PELAPVSSNLKYTLDC
Procedure: The hepcidin binding properties of AN-LP1 produced by hybridoma CNCM I-3794 were tested by ELISA. Synthetic human hepcidin-25 was coated on 96-well boxes, with a concentration of 1-10 microgram/ml in 100 mM carbonate buffer, pH 9.5. One part of the wells is coated with an irrelevant peptide ([…], SEQ ID NO: 10) to be able to determine the specific component of measured signal. After one night of contact, the wells are washed 3 times with a solution of PBS/0.05% tween 20, then saturated with a solution of 0.1M Tris 20%, sucrose pH 7.8. The mouse serums are added in duplicates, with 10-fold serial dilutions. After a 6 h incubation, the wells were washed three times with a solution of PBS 0.05%, tween 20 and an anti-mouse antibody coupled with peroxidase (Biosource) diluted to 1/5,000 in PBS, 0.1% BSA, 0.01% Tween 20 was added for an additional 1 h30-2 h.

synthetic mouse hepcidin = biological target: T2, synthetic mouse hepcidin (mouse, UniProt Q9EQ21 59-83); assay: dot blot on nitrocellulose, antibody 1:200, HRP secondary antibody, ECL
T2 construct: mature; also called murine hepcidin-25
T2 peptide (looked up): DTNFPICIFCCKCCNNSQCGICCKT
Procedure: Samples of synthetic human hepcidin (100 to 500 ng) or synthetic mouse) hepcidin (500 ng) (Peptide International, Louisville, Ky., USA), or of […] sera from a patient with an inflammatory disease, or from a healthy volunteer, were used. In one experiment, one sample of synthetic human hepcidin (500 ng) was treated with Laemmli buffer. The samples were directly spotted onto the nitrocellulose membrane and allowed to dry overnight. Non-specific sites were blocked by soaking the membrane in 5% skim milk in TBS-T (1 hr, at room temperature).
The primary antibodies (AN-LP1 antibody, or irrelevant antibody HPC4 directed against the epitope […] (SEQ ID NO: 11) of human protein C) were added at a dilution of 1:200 from a solution at 6 mg/ml. Incubation was performed for 2 h at room temperature or overnight at +4° C.
After 3 washes with TBS-T, the membranes were incubated with the secondary antibody conjugated with horseradish peroxidase (1:5000) for 1 h at room temperature.

[2] = biological target: T3, synthetic human hepcidin-25 (human); assay: SPR (BIAcore 2000), AN-LP1 immobilized on a CM5 chip, hepcidin 0.39 nM to 12.5 nM as analyte
T3 construct: Synthetic peptide (Peptide International for the blots); Serum hepcidin and liver hepcidin detected by AN-LP1 are written under this molecule
T3 peptide: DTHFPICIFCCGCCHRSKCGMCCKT
Procedure: To estimate AN-LP1 affinity constant and the antibody-antigen interactions, surface plasmon resonance (SPR) measurements were performed with a BIAcore 2000 instrument using carboxymethylated dextran CM5 chips (BIAcore, Piscataway, N.J.). AN-LP1 mAb, dilued at 2 μg/ml in 5 mM maleate buffer (pH 5.75), was immobilized on the CM5 chips by amine coupling.
Hepcidin was diluted in running buffer HBS-EP (0.01M HEPES pH 7.4; 0.15M NaCl, 3 mM EDTA and 0.005% polysorbate 20). Analyte was injected in 3 min, 60 μL/min injections and dissociation was monitored during 10 min. Surface Ab were generated by a 30-s to 1-min injection of glycine-HCL 10 mM pH 2. Kinetic rate constants were determined with purified antibodies. Concentrated hepcidin (0.39 nM to 12.5 nM) were injected over the chip surface at a rate of 60 μL/min to collect binding data. Data analyses were carried out with the BIAevaluation 3.0 software.

binding result [1]: no binding
binding result (synthetic mouse hepcidin): no binding (tested: 500 ng)
Kd [2]: 99 pM
B1: monoclonal antibody AN-LP1 produced by the hybridoma CNCM I-3794 (antibody, V domains shown)
VH: EVQLEESGGGLVQPGGSLKLSCAASGFTFSRYSMSWVRQTPEKRLEWVAYISDGGGSTYSPDTVKGRFSISRDNAQNTLYLQMSSLKSEDTAIFYCVRHARLEGYFDVWGAGTSVTVSS
VL: DVLTQSPASVAVSLGQRATISCRASESVDNYGNSFMNWYQQKPGQPPKLLIYRASNLESGIPARFSGSGSRTDFTLTINPVEADDVATYYCQQSNEDPTFGGGTKLEIKR
notes: also called AN-LP1 mAb; mAb AN-LP1
